B1: KLHL13 (parent)
chain: GVSKVGLRKIIDFIYTAKLSLNMD
B2: KLHL12 (parent)
chain: LDYTADEDGVWYSVAPMNVRRGLA
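Note: lentivirally expressed fusions sorted by FACS into six bins by GFP to DsRed ratio, PSI derived from sequencing read proportions per bin multiplied by bin number.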

In the first data set the parent is B1. Kind of data set: protein stability index of a GFP-peptide fusion (GPS, HEK-293T) (PSI 1-6); higher = more stable. The conditions noted are these: c terminus: a fixed tail appended.
Regarding GVSKVGLRKIIDFIYTAKLSLNCD, the protein stability index is 2.45.
Same read-out and setting: for GVSKVGLRKIIDFIYTAKLSLNRD the value was 3.14.
The same measure, in the same setting: the result for GVSKVGLRKIIDFIYTAKLSLNDD reads 2.09; that for GVSKVGLRKIIDFIYTAKLSLNTD, 2.19.
Still for that read-out and setting: for GVSKVGLRKIIDFIYTAKLNLNMD the value was 3.26; for GVSKVGLRKIIDFIYTAKLVLNMD, 1.96.
On to GVSKVGLRKIIDFIYTAKLKLNMD, for which the protein stability index was 3.46.
Same read-out and setting: the result for GVSKVGLRKIIDFIYTAKLALNMD reads 3.46; that for GVSKVGLRKIIDFIYTAKLHLNMD, 2.7.
Still for that read-out and setting: the result for GVSKVGLRKIIDFIYTAKLPLNMD reads 2.25; that for GVSKVGLRKIIDFIYTAKLRLNMD, 2.11.
Still for that read-out and setting: for GVSKVGLRKIIDFIYTAKLQLNMD the value was 1.68; for GVSKVGLRKIIDFIYTAKLELNMD, 4.11; for GVSKVGLRKIIDFIYTAKLLLNMD, 2.67.
On to GVSKVGLRKIIDFIYTAKLILNMD, for which the protein stability index came to 2.04.
Still for that read-out and setting: the result for GVSKVGLRKIIDFIYTAKLWLNMD reads 1.85.

Variants of B2 are the subject of the next data set. Described as above. The conditions noted are these: c terminus: a fixed tail appended.
Take LDATADEDGVWYSVAPMNVRRGLA: the protein stability index was 3.65.
Still for that read-out and setting: for LDDTADEDGVWYSVAPMNVRRGLA the value was 3.35.
Regarding LDRTADEDGVWYSVAPMNVRRGLA, the protein stability index was 2.99.
On the same count and under the same terms, for LDLTADEDGVWYSVAPMNVRRGLA the value was 2.22.
Same read-out and setting: for LDYTADEDGVWYSDAPMNVRRGLA the value was 3.79; for LDYTADEDGVWYSCAPMNVRRGLA, 2.5; for LDYTADEDGVWYSLAPMNVRRGLA, 1.82.
On to LDYTADEDGVWYSPAPMNVRRGLA, for which the protein stability index was determined as 2.63.
On the same count and under the same terms, for LDYTADEDGVWYLVAPMNVRRGLA the value was 1.89.
Still for that read-out and setting: the result for LDYTADEDGVWYPVAPMNVRRGLA reads 2.57; that for LDYTADEDGVWYSVAPMNVGRGLA, 1.72; that for LDYTADEDGVWYSVAPMNVLRGLA, 2.26.
Same read-out and setting: the result for LDYTADEDGVWYSVAPMNVQRGLA reads 1.89; that for LDYTADEDGVWYSVAPMKVRRGLA, 1.54; that for LDYTADEDGVWYSVAPMWVRRGLA, 2.37.
Regarding LDYTADEDGVWYSVAPMCVRRGLA, the protein stability index was 1.35.
Same read-out and setting: for LDYWADEDGVWYSVAPMNVRRGLA the value was 1.74; for LDYPADEDGVWYSVAPMNVRRGLA, 3.09.
Still for that read-out and setting: the result for LDYTADEDGVWYSVAPVNVRRGLA reads 2.59.
For the variant LDYTADEDGVWYSVAPENVRRGLA, the protein stability index is 2.59.
Turning to LDYTADEDGVWYSVAPKNVRRGLA, the protein stability index was found to be 2.71.
The same measure, in the same setting: the result for IDYTADEDGVWYSVAPMNVRRGLA reads 1.89.
For FDYTADEDGVWYSVAPMNVRRGLA, the protein stability index came to 2.16.
On the same count and under the same terms, for CDYTADEDGVWYSVAPMNVRRGLA the value was 2.75.
The same measure, in the same setting: the result for LDYTADEDGVYYSVAPMNVRRGLA reads 2.39; that for LDYTADEDGVDYSVAPMNVRRGLA, 4.35.
Still for that read-out and setting: for LDYTADEDGVNYSVAPMNVRRGLA the value was 3.97.
LDYTADEDGVHYSVAPMNVRRGLA: the protein stability index was 3.05.
On the same count and under the same terms, the result for LDYTADEDGVWYSVAPMNVRRGDA reads 2.46.
Same read-out and setting: the result for LDYTADEDGVWYSVAPMNVRRGVA reads 1.79; that for LDYTADEDGVWYSVAPMNVRRGKA, 2.
With LDYTADEDGVWYSVTPMNVRRGLA, the protein stability index came to 2.04.
Same read-out and setting: for LDYTADEDGVWYSVCPMNVRRGLA the value was 1.74; for LDYTADEDGVWYSVQPMNVRRGLA, 2.24; for LDYTADEDGVWYSVWPMNVRRGLA, 1.57.
Turning to LDYTADEDGVWYSVYPMNVRRGLA, the protein stability index is 2.04.
The same measure, in the same setting: for LDYTADNDGVWYSVAPMNVRRGLA the value was 2.09; for LDYTADFDGVWYSVAPMNVRRGLA, 2.55.
Still for that read-out and setting: for LDYTADEDGMWYSVAPMNVRRGLA the value was 2.32.
Same read-out and setting: for LDYTADEDGPWYSVAPMNVRRGLA the value was 2.47.
Regarding LDYTADEDGHWYSVAPMNVRRGLA, the protein stability index stood at 2.44.
Same read-out and setting: for LDYTADEDGVWYSVAPMNSRRGLA the value was 2.62; for LDYTADEDGVWYSVAPMNWRRGLA, 1.66; for LDYTADEDGVWYSVAPMNQRRGLA, 2.49.
On the same count and under the same terms, for LDYTADEDGVWYSVAPMNLRRGLA the value was 2.22.
Still for that read-out and setting: for LDYTADEDGVWYSVAPMNKRRGLA the value was 2.65; for LDYTADEDGVWYSVAPMNDRRGLA, 2.32.
As for LDYTADEDGVWYSVAPMNVRRGLR, the protein stability index was 1.97.
The same measure, in the same setting: the result for LDYTADEDGVWYSVAPMNVRRGLH reads 2.13; that for LDYTADEDGVWYSVAPMNVRRGLM, 1.75; that for LDYTADEDGVWYSVAPMNVRRGLY, 2.39.
With LDYTADEDPVWYSVAPMNVRRGLA, the protein stability index was 2.75.
Same read-out and setting: the result for LDYTADEDKVWYSVAPMNVRRGLA reads 1.75; that for LDYTADEDFVWYSVAPMNVRRGLA, 1.99; that for LDYTADEDMVWYSVAPMNVRRGLA, 2.26.
Same read-out and setting: for LDYTADEDIVWYSVAPMNVRRGLA the value was 1.88; for LDYTADEDNVWYSVAPMNVRRGLA, 2.5; for LDYTADEDGVWYSVAPMNVRRMLA, 1.95.
Still for that read-out and setting: for LDYTADEDGVWYSVAPMNVRRCLA the value was 2.27; for LDYTADEDGVWYSVAPMNVRRFLA, 1.51; for LDYTADEDGVWYSVAPMNVRRALA, 1.5.
As for LDYTADEVGVWYSVAPMNVRRGLA, the protein stability index is 1.6.
Regarding LDYTADENGVWYSVAPMNVRRGLA, the protein stability index came out at 1.42.
On the same count and under the same terms, the result for LHYTADEDGVWYSVAPMNVRRGLA reads 1.67.
As to LRYTADEDGVWYSVAPMNVRRGLA, the protein stability index is 1.93.
On to LFYTADEDGVWYSVAPMNVRRGLA, for which the protein stability index is 1.98.
On the same count and under the same terms, the result for LPYTADEDGVWYSVAPMNVRRGLA reads 2.48; that for LCYTADEDGVWYSVAPMNVRRGLA, 2.46.
As for LDYTADEDGVWYSVAAMNVRRGLA, the protein stability index is 2.33.
For LDYTADEDGVWCSVAPMNVRRGLA, the protein stability index is 3.07.
On the same count and under the same terms, for LDYTADEDGVWRSVAPMNVRRGLA the value was 3.37; for LDYTAKEDGVWYSVAPMNVRRGLA, 2.44; for LDYTAYEDGVWYSVAPMNVRRGLA, 1.51.
On the same count and under the same terms, the result for LDYTAPEDGVWYSVAPMNVRRGLA reads 2.46; that for LDYTCDEDGVWYSVAPMNVRRGLA, 1.68; that for LDYTEDEDGVWYSVAPMNVRRGLA, 2.14.
As for LDYTDDEDGVWYSVAPMNVRRGLA, the protein stability index amounted to 2.76.
In the case of LDYTYDEDGVWYSVAPMNVRRGLA, the protein stability index is 2.6.
